According to US20030171276A1, “Preventives and remedies for chronic hepatitis” (priority 1999, published 2003):

B1: lactoferrin: lactoferrin contained in breast milk (protein, UniProt P02788 20-710, looked up)
Lactotransferrin: GRRRSVQWCAVSQPEATKCFQWQRNMRKVRGPPVSCIKRDSPIQCIQAIAENRADAVTLDGGFIYEAGLAPYKLRPVAAEVYGTERQPRTHYYAVAVVKKGGSFQLNELQGLKSCHTGLRRTAGWNVPIGTLRPFLNWTGPPEPIEAAVARFFSASCVPGADKGQFPNLCRLCAGTGENKCAFSSQEPYFSYSGAFKCLRDGAGDVAFIRESTVFEDLSDEAERDEYELLCPDNTRKPVDKFKDCHLARVPSHAVVARSVNGKEDAIWNLLRQAQEKFGKDKSPKFQLFGSPSGQKDLLFKDSAIGFSRVPPRIDSGLYLGSGYFTAIQNLRKSEEEVAARRARVVWCAVGEQELRKCNQWSGLSEGSVTCSSASTTEDCIALVLKGEADAMSLDGGYVYTAGKCGLVPVLAENYKSQQSSDPDPNCVDRPVEGYLAVAVVRRSDTSLTWNSVKGKKSCHTAVDRTAGWNIPMGLLFNQTGSCKFDEYFSQSCAPGSDPRSNLCALCIGDEQGENKCVPNSNERYYGYTGAFRCLAENAGDVAFVKDVTVLQNTDGNNNEAWAKDLKLADFALLCLDGKRKPVTEARSCHLAMAPNHAVVSRMDKVERLKQVLLHQQAKFGRNGSDCPDKFCLFQSETKNLLFNDNTECLARLHGKTTYEKYLGPQYVAGITNLKKCSTSPLLEACEFLRK
B2: bLF: bovine lactoferrin protein (SERVA Electrophoresis GmbH) (protein, UniProt P24627 20-708, looked up)
Lactotransferrin: APRKNVRWCTISQPEWFKCRRWQWRMKKLGAPSITCVRRAFALECIRAIAEKKADAVTLDGGMVFEAGRDPYKLRPVAAEIYGTKESPQTHYYAVAVVKKGSNFQLDQLQGRKSCHTGLGRSAGWIIPMGILRPYLSWTESLEPLQGAVAKFFSASCVPCIDRQAYPNLCQLCKGEGENQCACSSREPYFGYSGAFKCLQDGAGDVAFVKETTVFENLPEKADRDQYELLCLNNSRAPVDAFKECHLAQVPSHAVVARSVDGKEDLIWKLLSKAQEKFGKNKSRSFQLFGSPPGQRDLLFKDSALGFLRIPSKVDSALYLGSRYLTTLKNLRETAEEVKARYTRVVWCAVGPEEQKKCQQWSQQSGQNVTCATASTTDDCIVLVLKGEADALNLDGGYIYTAGKCGLVPVLAENRKSSKHSSLDCVLRPTEGYLAVAVVKKANEGLTWNSLKDKKSCHTAVDRTAGWNIPMGLIVNQTGSCAFDEFFSQSCAPGADPKSRLCALCAGDDQGLDKCVPNSKEKYYGYTGAFRCLAEDVGDVAFVKNDTVWENTNGESTADWAKNLNREDFRLLCLDGTRKPVTEAQSCHLAVAPNHAVVSRSDRAAHVKQVLLHQQALFGKNGKNCPDKFCLFKSETKNLLFNDNTECLAKLGGRPTYEEYLGTEYVTAIANLKKCSTSPLLEACAFLTR

Experiments:
HCV = conditions: cited from earlier work
[1] = tested on: recombinant E2 protein binding to CD81 expressed in Jurkat cells; test: Inhibition of binding of recombinant E2 protein to Jurkat cells (FACScan); type: cell-based, HCV; conditions: 1 μg recombinant E2 protein preincubated with 10 μL of 1 mg/mL solution, room temperature 1 hour; FIG. 14
Experimental: An oligopeptide capable of binding to HCV E2 antigen is reacted with the HCV E2 antigen to study whether or not binding of CD81 expressed in Jurkat cells purchased from DAINIPPON PHARMACEUTICAL CO., LTD. to the HCV E2 antigen is inhibited. By the study, whether or not the selected oligopeptide inhibits adhesion of the HCV E2 antigen to CD81-positive cells can be estimated. The inhibitory activity for adhesion of CD81 to the IICV E2 antigen was assayed in accordance with the literature. The concrete description will be given hereinbelow.
The Jurkat cells were prepared in the same manner as in item (1), and suspended in WB so as to have a concentration of 4×10^6 cells/mL, to give a Jurkat cell suspension. […]
Hereinafter, in the same manner as in the item (1) above, the resulting product was reacted with an FITC-labeled anti-mouse IgG1 antibody, and thereafter the reaction mixture was suspended in 0.2 mL of a 10% neutral buffered formalin solution. As to the resulting product, E2 protein bound to Jurkat cells was analyzed by using FACScan.
One microgram of the recombinant E2 protein, and 10 μL of the TAPA148, bLF or bLF443 solution obtained in item (4) above were added to a 6 mm rounded-bottom tube and, and WB was then added thereto, to give 50 μL of a mixture. […] As to the resulting suspension, E2 protein bound to Jurkat cells was analyzed by using FACScan.

Row | Molecule | amount of virus in blood (HCV) | binding to HCV (HCV; lactoferrin contained in breast milk) | inhibitory action of binding of E2 protein to Jurkat cells [1]
1 | B1 | reduces an amount of virus in blood | binds to HCV | –
2 | B2 | – | – | inhibitory action of binding of the E2 protein
